Measured values as given in the supplement of paper PMC10567573.

B1: IFRG15 (parent)
chain: INRADYCPECYPDNPANRSLVLPW

Variants of: B1
Assay: protein stability index of a GFP-peptide fusion (GPS, HEK-293T) (PSI 1-6); higher = more stable
Conditions: c terminus: a fixed tail appended
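Also: lentivirally expressed fusions sorted by FACS into six bins by GFP to DsRed ratio, PSI derived from sequencing read proportions per bin multiplied by bin number.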

| Variant | protein stability index |
| --- | --- |
| I1L | 2.29 |
| I1R | 2.05 |
| I1A | 2.15 |
| I1E | 1.93 |
| I1S | 2.14 |
| I1M | 2.38 |
| I1N | 3.18 |
| I1C | 2.53 |
| L22C | 2.12 |
| L22K | 2.04 |
| L22N | 2.65 |
| L22F | 2.05 |
| L22Q | 2.35 |
| L22D | 2.15 |
| L22A | 2.69 |
| L22V | 3 |
| L22H | 1.49 |
| R18Y | 1.44 |
| R18W | 1.69 |
| R18F | 2.32 |
| R18A | 2.17 |
| R18V | 1.9 |
| R18K | 2.83 |
| R18D | 2.88 |

| Variant | protein stability index |
| --- | --- |
| R18C | 1.81 |
| R18L | 1.83 |
| R18T | 1.35 |
| R18M | 2.06 |
| R18I | 1.82 |
| R18N | 2.22 |
| P12A | 2.04 |
| P12L | 1.9 |
| P12W | 1.72 |
| P12R | 2.05 |
| P12V | 1.84 |
| P15E | 2.58 |
| P15Y | 1.84 |
| P15T | 1.9 |
| P15H | 2.46 |
| P15K | 1.74 |
| P15S | 2.94 |
| P15L | 1.97 |
| P15F | 1.44 |
| P15G | 2.48 |
| P15N | 1.97 |
| N14T | 1.6 |
| N14M | 1.68 |
| N14S | 2.72 |

| Variant | protein stability index |
| --- | --- |
| N14G | 2.83 |
| N14A | 2.31 |
| N14Y | 2.08 |
| N14E | 2.64 |
| N14P | 2.28 |
| N14V | 2.04 |
| N14R | 2 |
| W24L | 1.8 |
| W24D | 3.89 |
| W24G | 2.69 |
| W24M | 2.23 |
| W24T | 2.3 |
| W24Y | 2.12 |
| W24E | 2.99 |
| D13V | 1.63 |
| D13M | 2.25 |
| D13A | 1.94 |
| D13Q | 2.28 |
| D13P | 2.11 |
| D13G | 1.98 |
| D13R | 1.69 |
| D13E | 1.86 |
| A16L | 1.86 |
| A16V | 1.85 |

| Variant | protein stability index |
| --- | --- |
| A16P | 2.15 |
| A16K | 1.94 |
| A16F | 2.02 |
| A16E | 2.42 |
| A16I | 1.6 |
| A4T | 2.1 |
| A4F | 1.93 |
| A4M | 1.51 |
| A4Y | 2.63 |
| A4K | 2.16 |
| A4R | 1.83 |
| A4V | 1.83 |
| A4Q | 2.28 |
| R3P | 2.42 |
| R3W | 1.35 |
| R3K | 2.39 |
| R3L | 2.14 |
| R3E | 2.42 |
| R3H | 2.39 |
| C10Q | 3.09 |
| C10G | 2.81 |
| C10M | 2.83 |
| C10I | 1.74 |
| C10S | 2.92 |

| Variant | protein stability index |
| --- | --- |
| C10E | 2.83 |
| C7M | 2.08 |
| C7N | 2.81 |
| C7P | 2.42 |
| N2A | 1.65 |
| N2G | 2.15 |
| N2Y | 1.7 |
| N2W | 1.61 |
| N2P | 2.92 |
| S19C | 1.81 |
| S19A | 2.16 |
| S19M | 1.65 |
| S19R | 1.59 |
| S19H | 2.07 |
| S19Y | 1.88 |
| P23Y | 2.09 |
| P23L | 1.57 |
| P23E | 1.03 |
| P23H | 1.65 |
| Y11K | 2.27 |
| Y11G | 2.84 |
| Y11S | 2.69 |
| Y11F | 2.2 |
| Y11C | 3.16 |

| Variant | protein stability index |
| --- | --- |
| D5C | 1.92 |
| D5V | 2.21 |
| D5N | 1.88 |
| D5P | 1.91 |
| D5S | 2.07 |
| D5G | 1.91 |
| P8N | 1.88 |
| P8G | 2.67 |
| P8K | 2.47 |
| P8Q | 2.48 |
| P8F | 2.1 |
| L20P | 2.31 |
| L20F | 1.79 |
| L20Q | 2.02 |
| L20K | 2.27 |
| L20E | 2.9 |
| L20C | 2.06 |
| L20R | 2.13 |
| L20A | 3.02 |
| Y6S | 3.25 |
| Y6V | 2.46 |
| Y6H | 3.04 |
| Y6W | 2.3 |
| Y6T | 3.14 |

| Variant | protein stability index |
| --- | --- |
| Y6G | 2.65 |
| Y6R | 2.44 |
| Y6Q | 3.12 |
| V21I | 1.97 |
| V21T | 2.43 |
| V21H | 1.84 |
| V21G | 2.69 |
| V21Y | 1.99 |
| V21C | 1.82 |
| V21K | 1.98 |
| V21D | 2.43 |
| E9C | 2.4 |
| E9R | 2.02 |
| E9L | 2.07 |
| E9K | 1.63 |
| E9A | 2.71 |
| N17D | 2.1 |
| N17C | 2.03 |
| N17V | 1.79 |
| N17K | 1.8 |
| N17A | 2.3 |
| N17H | 2.04 |
| N17M | 1.91 |
